# Assay results taken from the supplement of paper PMC9112550, “Optimization of the antimicrobial peptide Bac7 by deep mutational scanning” (BMC Biology, 2022).
# System: Escherichia coli TOP10
# Assay: shrunken log2 fold change of peptide-encoding DNA abundance (4.5 h post-induction vs induction); higher = less antimicrobial activity (less host growth inhibition)
# Conditions: time post-induction: 4.5 h; library: site-saturation at positions 5, 18, 19, 20
# 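Also: peptides expressed intracellularly from a pBAD plasmid library in pooled LB shake-flask culture, induced with 0.3% L-arabinose, DNA abundance read by NGS, three biological replicates, DESeq2 with apeglm shrinkage.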
row,Sequence,shrunken log2 fold change
1,RRIRSRPPRLPRPRPRPSAVPRP,0.091
2,RRIRTRPPRLPRPRPRPHEGPRP,-0.00663
3,RRIRMRPPRLPRPRPRPLWTPRP,0.261
4,RRIRARPPRLPRPRPRPMKWPRP,0.126
5,RRIRMRPPRLPRPRPRPSWIPRP,0.0389
6,RRIRGRPPRLPRPRPRPMVIPRP,0.329
7,RRIRQRPPRLPRPRPRPKWQPRP,0.0435
8,RRIRERPPRLPRPRPRPTQFPRP,-0.118
9,RRIRPRPPRLPRPRPRPNYEPRP,-0.442
10,RRIRLRPPRLPRPRPRPNWDPRP,0.14
11,RRIRSRPPRLPRPRPRPTNTPRP,0.0794
12,RRIRPRPPRLPRPRPRPNSFPRP,-0.251
13,RRIRWRPPRLPRPRPRPNERPRP,0.119
14,RRIRTRPPRLPRPRPRPWCFPRP,-0.046
15,RRIRARPPRLPRPRPRPSRGPRP,0.497
16,RRIRDRPPRLPRPRPRPNKRPRP,-0.14
17,RRIRYRPPRLPRPRPRPGQEPRP,-0.0317
18,RRIRERPPRLPRPRPRPQRGPRP,-0.0773
19,RRIRKRPPRLPRPRPRPHGFPRP,0.056
20,RRIRCRPPRLPRPRPRPSRCPRP,0.137
21,RRIRWRPPRLPRPRPRPVDEPRP,0.0343
22,RRIRYRPPRLPRPRPRPLCDPRP,-0.12
23,RRIRGRPPRLPRPRPRPKGIPRP,0.529
24,RRIRKRPPRLPRPRPRPSLTPRP,-0.0632
25,RRIRSRPPRLPRPRPRPMWAPRP,0.00731

row,Sequence,shrunken log2 fold change
1,RRIRVRPPRLPRPRPRPRWEPRP,0.329
2,RRIRKRPPRLPRPRPRPNRCPRP,0.0393
3,RRIRNRPPRLPRPRPRPFWHPRP,0.189
4,RRIRMRPPRLPRPRPRPKSDPRP,0.466
5,RRIRKRPPRLPRPRPRPYTFPRP,-0.264
6,RRIRKRPPRLPRPRPRPKYEPRP,0.057
7,RRIRNRPPRLPRPRPRPSTTPRP,-0.47
8,RRIRNRPPRLPRPRPRPSPIPRP,-0.561
9,RRIRNRPPRLPRPRPRPFPVPRP,-0.125
10,RRIRWRPPRLPRPRPRPKKIPRP,0.0449
11,RRIRWRPPRLPRPRPRPDMEPRP,-0.0114
12,RRIRNRPPRLPRPRPRPVCIPRP,-0.215
13,RRIRHRPPRLPRPRPRPPHAPRP,0.334
14,RRIRGRPPRLPRPRPRPGPAPRP,1.02
15,RRIRKRPPRLPRPRPRPHGGPRP,-0.0161
16,RRIRRRPPRLPRPRPRPKDCPRP,0.132
17,RRIRWRPPRLPRPRPRPAYTPRP,0.0906
18,RRIRERPPRLPRPRPRPSMGPRP,-0.817
19,RRIRHRPPRLPRPRPRPFVMPRP,-0.281
20,RRIRYRPPRLPRPRPRPAGEPRP,-0.148
21,RRIRPRPPRLPRPRPRPNVFPRP,-0.21
22,RRIRVRPPRLPRPRPRPDMNPRP,-0.548
23,RRIRDRPPRLPRPRPRPPNAPRP,0.617
24,RRIRPRPPRLPRPRPRPSDCPRP,-0.0743
25,RRIRKRPPRLPRPRPRPMDSPRP,-0.0874

row,Sequence,shrunken log2 fold change
1,RRIRARPPRLPRPRPRPNAKPRP,0.262
2,RRIRMRPPRLPRPRPRPCSWPRP,0.0611
3,RRIRIRPPRLPRPRPRPSAYPRP,-0.138
4,RRIRRRPPRLPRPRPRPIEWPRP,0.375
5,RRIRNRPPRLPRPRPRPRGRPRP,0.316
6,RRIRERPPRLPRPRPRPPRKPRP,0.387
7,RRIRIRPPRLPRPRPRPELNPRP,0.12
8,RRIRARPPRLPRPRPRPPSQPRP,0.669
9,RRIRCRPPRLPRPRPRPHRNPRP,-0.791
10,RRIRNRPPRLPRPRPRPTGLPRP,0.0817
11,RRIRFRPPRLPRPRPRPYSSPRP,-0.571
12,RRIRDRPPRLPRPRPRPCFSPRP,-0.0275
13,RRIRWRPPRLPRPRPRPVPKPRP,0.524
14,RRIRGRPPRLPRPRPRPQSTPRP,0.649
15,RRIRCRPPRLPRPRPRPKSCPRP,0.0733
16,RRIRMRPPRLPRPRPRPQINPRP,-0.0723
17,RRIRHRPPRLPRPRPRPCLWPRP,-0.0157
18,RRIRCRPPRLPRPRPRPSFQPRP,-0.384
19,RRIRLRPPRLPRPRPRPGPSPRP,0.25
20,RRIRARPPRLPRPRPRPGWGPRP,0.463
21,RRIRIRPPRLPRPRPRPECMPRP,-0.428
22,RRIRCRPPRLPRPRPRPCITPRP,-0.0767
23,RRIRDRPPRLPRPRPRPLYWPRP,-0.112
24,RRIRCRPPRLPRPRPRPFPPPRP,0.0149
25,RRIRWRPPRLPRPRPRPQHPPRP,0.0134

row,Sequence,shrunken log2 fold change
1,RRIRYRPPRLPRPRPRPQNIPRP,-1.24
2,RRIRCRPPRLPRPRPRPHQAPRP,-0.0274
3,RRIRMRPPRLPRPRPRPWLDPRP,0.0568
4,RRIRKRPPRLPRPRPRPGEQPRP,-0.0435
5,RRIRFRPPRLPRPRPRPIFGPRP,0.449
6,RRIRFRPPRLPRPRPRPECPPRP,0.0177
7,RRIRTRPPRLPRPRPRPHGDPRP,-0.146
8,RRIRERPPRLPRPRPRPTVVPRP,-0.188
9,RRIRKRPPRLPRPRPRPTKTPRP,0.14
10,RRIRTRPPRLPRPRPRPHMHPRP,-0.543
11,RRIRHRPPRLPRPRPRPMWRPRP,0.136
12,RRIRRRPPRLPRPRPRPQTGPRP,0.0354
13,RRIRKRPPRLPRPRPRPMRAPRP,1.23
14,RRIRQRPPRLPRPRPRPINDPRP,-0.293
15,RRIRIRPPRLPRPRPRPDRWPRP,0.0549
16,RRIRERPPRLPRPRPRPVDPPRP,-0.342
17,RRIRPRPPRLPRPRPRPFKYPRP,-0.0171
18,RRIRTRPPRLPRPRPRPPTLPRP,0.0694
19,RRIRVRPPRLPRPRPRPTRAPRP,0.665
20,RRIRYRPPRLPRPRPRPHAKPRP,-0.0339
21,RRIRFRPPRLPRPRPRPTTDPRP,-0.13
22,RRIRYRPPRLPRPRPRPMDTPRP,-0.216
23,RRIRSRPPRLPRPRPRPDKRPRP,-0.198
24,RRIRTRPPRLPRPRPRPSYWPRP,-0.153
25,RRIRVRPPRLPRPRPRPMTGPRP,-0.0967

row,Sequence,shrunken log2 fold change
1,RRIRPRPPRLPRPRPRPIAFPRP,-0.00102
2,RRIRGRPPRLPRPRPRPFLSPRP,0.162
3,RRIRYRPPRLPRPRPRPFIDPRP,-0.018
4,RRIRMRPPRLPRPRPRPSMKPRP,0.0872
5,RRIRCRPPRLPRPRPRPYNYPRP,-0.914
6,RRIRERPPRLPRPRPRPCETPRP,-0.336
7,RRIRYRPPRLPRPRPRPAEDPRP,-0.176
8,RRIRPRPPRLPRPRPRPTMWPRP,0.457
9,RRIRRRPPRLPRPRPRPIKAPRP,0.0673
10,RRIRARPPRLPRPRPRPPECPRP,0.327
11,RRIRLRPPRLPRPRPRPPNSPRP,0.0409
12,RRIRLRPPRLPRPRPRPTCGPRP,0.281
13,RRIRDRPPRLPRPRPRPSKWPRP,-0.196
14,RRIRTRPPRLPRPRPRPEYHPRP,-0.00732
15,RRIRFRPPRLPRPRPRPHLGPRP,0.0424
16,RRIRCRPPRLPRPRPRPKMPPRP,0.0277
17,RRIRHRPPRLPRPRPRPRAAPRP,0.368
18,RRIRPRPPRLPRPRPRPCSEPRP,-0.00276
19,RRIRRRPPRLPRPRPRPTYDPRP,0.0415
20,RRIRLRPPRLPRPRPRPYVRPRP,0.0394
21,RRIRDRPPRLPRPRPRPICLPRP,0.0829
22,RRIRIRPPRLPRPRPRPWQAPRP,-0.115
23,RRIRNRPPRLPRPRPRPYAPPRP,-0.702
24,RRIRGRPPRLPRPRPRPLFNPRP,0.117
25,RRIRPRPPRLPRPRPRPFYAPRP,0.02

row,Sequence,shrunken log2 fold change
1,RRIRRRPPRLPRPRPRPRYAPRP,0.284
2,RRIRRRPPRLPRPRPRPGSTPRP,0.1
3,RRIRYRPPRLPRPRPRPHAPPRP,-0.0159
4,RRIRSRPPRLPRPRPRPADKPRP,-0.254
5,RRIRHRPPRLPRPRPRPRDNPRP,0.0766
6,RRIRERPPRLPRPRPRPLHYPRP,-0.249
7,RRIRNRPPRLPRPRPRPWFNPRP,-0.448
8,RRIRPRPPRLPRPRPRPNVMPRP,-0.341
9,RRIRFRPPRLPRPRPRPFWDPRP,-0.374
10,RRIRRRPPRLPRPRPRPYFEPRP,-0.562
11,RRIRCRPPRLPRPRPRPLRMPRP,0.461
12,RRIRPRPPRLPRPRPRPMVKPRP,-0.154
13,RRIRRRPPRLPRPRPRPSLFPRP,0.196
14,RRIRTRPPRLPRPRPRPPPRPRP,1.36
15,RRIRRRPPRLPRPRPRPDYLPRP,0.152
16,RRIRFRPPRLPRPRPRPLFTPRP,-0.239
17,RRIRIRPPRLPRPRPRPVVQPRP,-1.04
18,RRIRDRPPRLPRPRPRPHEHPRP,0.00488
19,RRIRPRPPRLPRPRPRPHYLPRP,-0.906
20,RRIRQRPPRLPRPRPRPHYVPRP,-0.123
21,RRIRNRPPRLPRPRPRPINIPRP,0.00587
22,RRIRSRPPRLPRPRPRPQSTPRP,-0.24
23,RRIRKRPPRLPRPRPRPYDQPRP,0.0359
24,RRIRFRPPRLPRPRPRPTTEPRP,0.108
25,RRIRYRPPRLPRPRPRPAGAPRP,0.421
